Measured values: the supplement of paper PMC9170038

Assays:
MS2 coat protein = assay: apparent KD of MS2 coat protein; higher = weaker reporter binding; settings: Eterna round: R107
Description: (§1)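 RNA-MaP round R107: designed RNA switches with theophylline, tryptophan, arginine or FMN aptamers are transcribed on-chip within common flanks. They are titrated with SNAP-549-labelled MS2 coat protein in RNA-MaP buffer (100 mM Tris pH 7.5, 80 mM KCl, 4 mM MgCl2), without ligand or with the indicated ligand. Median apparent KD per design.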

[1] = tested on: K4 kissing-loop RNA reporter; assay: apparent KD of K4 kissing-loop reporter; higher = weaker reporter binding; settings: Eterna round: R107;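 further: bound reporter read as fluorescence of individual clusters on recovered sequencing chips by microscopy, with normalized cluster intensities fitted with a binding model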
Description: as §1, with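 “a labelled K4 kissing-loop RNA reporter” for “SNAP-549-labelled MS2 coat protein”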

[2] = input ligand: theophylline 20 uM
[3] = input ligand: theophylline 2 mM
[4] = input ligand: tryptophan 2.4 mM

Sequence | apparent KD of MS2 coat protein (MS2 coat protein; input ligand: arginine 13.2 mM) | apparent KD of MS2 coat protein (MS2 coat protein; input ligand: none) | apparent KD of MS2 coat protein (MS2 coat protein; [2]) | apparent KD of MS2 coat protein (MS2 coat protein; [3]) | apparent KD of MS2 coat protein (MS2 coat protein; [4]) | apparent KD of K4 kissing-loop reporter ([1]; input ligand: FMN 200 uM) | apparent KD of K4 kissing-loop reporter ([1]; input ligand: arginine 13.2 mM) | apparent KD of K4 kissing-loop reporter ([1]; input ligand: none) | apparent KD of K4 kissing-loop reporter [1, 2] | apparent KD of K4 kissing-loop reporter [1, 4]
AAAACACAUGAGGAUCACCCAUGUCAUGAUACCAGUCAACAUGAGGACCCUUGGCAGCAUAAAAUGGGUAACAUGAGGAUCACCC [AstrosEXyTheA#1] | 129 nM | 29.4 nM | 93.8 nM | 102 nM | 50.5 nM |  |  |  |  | 
AAAACACAUGAGGAUCACCCAUGUCGUGAUACCAGUCAACAUGAGGACCCUUGGCAGCAUAAAAUGGGUAACAUGAGGAUCACCC [AstrosEXyTheA#5] | 65.3 nM |  | 118 nM |  | 90.9 nM |  |  |  |  | 
AAAACAUGAGGAUCACCACAUGACAUGAGGCGAGGACCGGUACGGCCGCCACUCGACAUACAUGAGGAUCACCCAUGUUUGUUGU [Exclusion Tryptophan A 4] | 40.7 nM |  | 274 nM | 460 nM |  |  |  |  |  | 
AAAACAUGAGGAUCACCCAUGUGGUGAGAAGGAGCGUCGGAAAUGACAGGUAGGUCGCUUAUCCGUAAGUAUUAGUGUUAGUACA [SSArg A #1] | 140 nM | 280 nM | 290 nM | 388 nM | 335 nM |  |  |  |  | 
AAAAGAGGUGGAAGGAGCGGGAGACAUGAGGAUCACCCAUGUGAUAUGACAAGAGGAUCAGCCCAGGUAGGUCGCCAUGUCGAAA [pbbbmullin] | 17.9 nM | 71.1 nM | 53.1 nM | 103 nM | 50 nM |  |  |  |  | 
AAAAUCCUACUUGAGGAUCACCCAGGUGAAGGAGCGCCCGAAAGGGCAGGUAGGUCGCACCUGAGGAUCACCCUGGUAAACCUAA [ArgEX 8 #DoubleMS2 #OpenEnded] | 79.1 nM | 140 nM | 135 nM | 185 nM | 152 nM |  |  |  |  | 
UUUCGGCCCAGUGAUGUUGGGUGGAGGCGGCGAGGACCGGUACGGCCGCCACUCGGCGCACUGGCGGAGUGAUGUUUCGUGUAUA [Same State Tryptophan A GF 14] |  |  |  |  |  | 697 nM | 592 nM | 752 nM | 708 nM | 834 nM
UUUCGUUGAAGUGAUACCAGACUUGAAAGUGAUGUUUUCCAAUAAUUUAAAUUAUUAGCUGUCCCUUGGCAGCACAGUUUAUUUA [JR_ExcTheophyB_Sub007] |  |  |  |  |  | 255 nM | 371 nM | 327 nM | 443 nM | 208 nM
UUUCGUUUCGUCUGACAUAAUUGGCUAGAAGGAGCGGUAAAAUUACCAGGUAGGUCGCUAGCCCAGUGAUGUUGGGACUAGCAUA [Onqudi] |  |  |  |  |  | 148 nM | 154 nM | 133 nM | 156 nM | 171 nM
UUUGGAUUGCGCGAAGAGUGCAAGCGCCAACGAGGACCGGUACGGCCGCCACUCGCGGAGGAGUCCAGUGAUGUUGGACGGCCCG [Laraones] |  |  |  |  |  | 271 nM | 276 nM | 281 nM | 290 nM | 185 nM
UUUGGUUUCUCGGCCGCCACUCGUUGGUUAUGGGCUUCAGGGAUAUAGUGAUGUUAUGUAUAGAAGAGGACCGGGAGAAGGUUUG [ExTryptoB.Dt] |  |  |  |  |  | 343 nM | 343 nM | 318 nM | 408 nM | 301 nM
UUUGGUUUCUCGGCCGCCACUCGUUGUCUAUCGGCUUCAGGGAUAUAGUGAUGUUAUGUAUAGAAGAGGACCGGGAGAAGGUUCU [ExTryptoB.Dx] |  |  |  |  |  | 280 nM | 267 nM | 347 nM | 307 nM | 182 nM
UUUGUAUAGGGAAGGAGCGUGAAUGAUAAUGAAUAUAGUGAUGUUAUAUAGAAGAAAGAAUCACAGGUAGGUCGCCCGGAGGAGG [SSArgB.I] |  |  |  |  |  | 198 nM | 234 nM | 1000 nM | 456 nM | 247 nM
UUUGUAUCGGGAAGGAGCGUGAAUGAUAAUGAAUAUAGUGAUGUUAUAUAUAAGAACGAAUCACAGGUAGGUCGCCCGGAUGACU [SSArgB.O] |  |  |  |  |  | 747 nM | 555 nM | 515 nM | 729 nM | 364 nM
UUUGUAUCGGGAAGGAGCGUGAAUGAUAAUGGAUAUAGUGAUGUUAUAUAUAAGAACGAAUCGCAGGUAGGUCGCCCGGAUGACU [SSArgB.Q] |  |  |  |  |  | 431 nM | 388 nM | 413 nM | 400 nM | 252 nM
UUUUAAAUAUCUGAUACCAGAGAAAAUAUAUGUAGUGAUGUUAUAUACAAAAUAAUUAAGCUCCCUUGGCAGCAGUAUUAAUUUU [AstrosExc-TheB#3] |  |  |  |  |  | 612 nM | 658 nM | 946 nM | 705 nM | 541 nM
UUUUAGGUAUCUGAUACCAGAGAAAAUAUAUGUAGUGAUGUUAUAUACAAAAUAAUUAAGCUCCCUUGGCAGCAGUUUUAAUUUU [AstrosExc-TheB#5] |  |  |  |  |  | 872 nM | 730 nM | 902 nM | 763 nM | 633 nM
UUUUGGUACUGAGGAUAUUCGAAGAAAUAUAGUGAUGUUAUAUAAGGAGGAGGAGGGAGGGAGGAAGGAGAAGGCAGAAGAGGAG [ExFMNB.G] |  |  |  |  |  | 289 nM | 163 nM | 235 nM | 225 nM | 266 nM
